Assays:
[1] = target: T1, PTg S5 subunit (Bordetella pertussis, UniProt P04981 35-133); assay: cryo-EM structure
T1 sequence: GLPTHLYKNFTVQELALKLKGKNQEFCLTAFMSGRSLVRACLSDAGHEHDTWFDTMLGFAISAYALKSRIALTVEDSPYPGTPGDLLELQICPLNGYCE

[2] = target: PTg S2 subunit (Bordetella pertussis, UniProt P04978); assay: cryo-EM structure
[3] = target: PTg S3 subunit (Bordetella pertussis, UniProt P04979); assay: cryo-EM structure
[4] = target: Pertussis toxin (PT), enzymatically active (Bordetella pertussis; strain of bought …, UniProt P04977;P04978;P04979;P0A3R5;P04981); assay: ELISA
[5] = target: PTg S5 subunit (Bordetella pertussis, UniProt P04981); assay: cryo-EM structure

Chain of Pertussis toxin (PT), enzymatically active (P04978 28-226, chain 2 of 3): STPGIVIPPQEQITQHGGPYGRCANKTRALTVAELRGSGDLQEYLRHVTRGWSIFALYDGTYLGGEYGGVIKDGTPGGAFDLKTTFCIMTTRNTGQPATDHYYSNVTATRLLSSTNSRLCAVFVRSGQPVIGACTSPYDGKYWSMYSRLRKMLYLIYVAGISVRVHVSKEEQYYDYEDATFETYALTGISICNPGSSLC
Chain of Pertussis toxin (PT), enzymatically active (P04979 29-227, chain 3 of 3): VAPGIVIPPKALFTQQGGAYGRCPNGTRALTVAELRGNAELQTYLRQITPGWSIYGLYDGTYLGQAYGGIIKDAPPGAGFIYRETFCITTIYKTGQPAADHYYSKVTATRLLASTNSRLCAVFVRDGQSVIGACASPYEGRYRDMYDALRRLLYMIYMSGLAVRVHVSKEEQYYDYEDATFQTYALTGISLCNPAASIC
Chain of Pertussis toxin (PT), enzymatically active (P0A3R5 43-152, chain 4 of 3): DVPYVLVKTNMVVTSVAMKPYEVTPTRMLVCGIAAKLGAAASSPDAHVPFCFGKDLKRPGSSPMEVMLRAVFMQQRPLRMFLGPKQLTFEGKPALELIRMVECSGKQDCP
Chain of PTg S3 subunit (P04979 29-227): as the sequence (P04979 29-227, chain 3 of 3) above
Chain of PTg S2 subunit (P04978 28-226): as the sequence (P04978 28-226, chain 2 of 3) above

B1: PTg S1 subunit ([change], [change]) (natural protein)
chain: DDPPATVYKYDSRPPEDVFQNGFTAWGNNDNVLDHLTGRSCQVGSSNSAFVSTSSSRRYTEVYLEHRMQEAVEAERAGRGTGHFIGYIYEVRADNNFYGAASSYFEYVDTYGDNAGRILAGALATYQSGYLAHRRIPPENIRRVTRVYHNGITGETTTTEYSNARYVSQQTRANPNPYTSRRSVASIVGTLVRMAPVIGACMARQAESSEAMAAWSERAGEAMVLVYYESIAYSF
Q: Does B1 bind [1]?
A: binds

B2: hu11E6 Fab (Fab, V domains shown)
VH: EVQVVESGGGLVQPGRSLRLSCTTSGFTFTDYYVSWVRQAPGKALEWLGFIRNKVNGYTTEFSSSVKGRFTISRDNSKSILYLQMNSLKIEDTAVYYCARVSYYGRGWYFDYWGQGTTLTVSS
VL: DIVMTQSPSSLSASVGDRVTISCRASQDIDNYLSWFQQKPGGTVKLLIYYTSRLHSGVPSRFSGSGSGTDYTLTISSLQPEDIATYFCQQGNTFPWTFGGGTKLEIK
Q: Does B2 bind [2]?
A: binds

Q: Does B2 bind [3]?
A: binds

B3: hu1B7mut IgG (hu1B7 heavy chain S56A, Q61A, Q64A) (antibody, V domains shown)
VH: QVQLVQSGAEVKKPGASVKVSCKASGYKFTSYWMHWVRQAPGQGLEWIGNIFPGSGATNYAAKFAGRVTLTVDTSTSTAYMELSSLRSEDTAVYYCTRWLSGAYFDYWGQGTTVTVSS
VL: QIVLTQSPATLSVSPGERVTLTCSASSSVSFMYWYQQKPGRAPKPLIYLTSNLPSGVPARFSGSGSGTSYTLTINSLEAEDAATYYCQQWSSHPPTFGSGTKLEIK
Q: Does B3 bind [4]?
A: binds

B4: hu1B7 IgG (antibody, V domains shown)
VH: QVQLVQSGAEVKKPGASVKVSCKASGYKFTSYWMHWVRQAPGQGLEWIGNIFPGSGSTNYAQKFQGRVTLTVDTSTSTAYMELSSLRSEDTAVYYCTRWLSGAYFDYWGQGTTVTVSS
VL: QIVLTQSPATLSVSPGERVTLTCSASSSVSFMYWYQQKPGRAPKPLIYLTSNLPSGVPARFSGSGSGTSYTLTINSLEAEDAATYYCQQWSSHPPTFGSGTKLEIK
Q: Does B4 bind [4]?
A: binds

B5: hu1B7 Fab (Fab, V domains shown)
VH: QVQLVQSGAEVKKPGASVKVSCKASGYKFTSYWMHWVRQAPGQGLEWIGNIFPGSGSTNYAQKFQGRVTLTVDTSTSTAYMELSSLRSEDTAVYYCTRWLSGAYFDYWGQGTTVTVSS
VL: QIVLTQSPATLSVSPGERVTLTCSASSSVSFMYWYQQKPGRAPKPLIYLTSNLPSGVPARFSGSGSGTSYTLTINSLEAEDAATYYCQQWSSHPPTFGSGTKLEIK
Q: Does B5 bind [5]?
A: binds

— paper PMC11463501 (bioRxiv, 2024)
